{"source": "paper PMC4066673", "about": "(Biochemistry, 2012)", "proteins": {"B1": {"name": "His6-tagged (Δ1-39)hTHEM4 (enzyme, human, UniProt Q5T1C6 40-240, looked up)", "chain": "EVILKDCSVPNPSWNKDLRLLFDQFMKKCEDGSWKRLPSYKRTPTEWIQDFKTHFLDPKLMKEEQMSQAQLFTRSFDDGLGFEYVMFYNDIEKRMVCLFQGGPYLEGPPGFIHGGAIATMIDATVGMCAMMAGGIVMTANLNINYKRPIPLCSVVMINSQLDKVEGRKFFVSCNVQSVDEKTLYSEATSLFIKLNPAKSLT"}}, "target": "the molecule itself", "assay": "SEC-MALS"}
{"protein": "B1", "values": [{"measurement": "stoichiometry N", "result": 2}]}
